For one substance, binding signal (fold lower affinity than WT RepA) results are on record in paper PMC9455977, “Deciphering the Regulatory Circuits of RA3 Replication Module - Mechanisms of the Copy Number Control”.

This series has as its system RepA D76V (plasmid RA3 (IncU, isolated from Aeromonas hydrophila)). The series is described as follows: EMSA. The settings on record: 25 mM Tris-HCl pH 8.0, 5 mM MgCl2, 40 mM NaCl, 0.5 mg/mL BSA, 30 min at 37 C, 20 uL; 30 ng PCR fragment (0.8% agarose) or 150 ng ds oligo (10% native PAGE) …. (In EMSA bound probe runs differently from free probe, usually more slowly.)

For repAp 256 bp PCR fragment, the binding signal (fold lower affinity than WT RepA) is 5.
